{"source": "the array DNA melting data of Ke et al.", "experiment": "melting temperature; melt of duplexes", "conditions": "sodium 0.0675 M; strand 1 µM", "data": [{"substance": "CGACGTGCGCAATGTGCTG+CAGCACATAATGCACGTCG ((((((((...((((((((+))))))))...))))))))", "values": [{"measurement": "Tm", "value": 50.5, "unit": "°C"}]}, {"substance": "CGACGTGCGCAATGTGCTG+CAGCACATACAGCACGTCG ((((((((...((((((((+))))))))...))))))))", "values": [{"measurement": "Tm", "value": 51.4, "unit": "°C"}]}, {"substance": "CGACGTGCGCAATGTGCTG+CAGCACATAGAGCACGTCG ((((((((.(.((((((((+)))))))).).))))))))", "values": [{"measurement": "Tm", "value": 54.7, "unit": "°C"}]}, {"substance": "CGACGTGCGCAATGTGCTG+CAGCACATAGCGCACGTCG ((((((((((.((((((((+)))))))).))))))))))", "values": [{"measurement": "Tm", "value": 61.2, "unit": "°C"}]}, {"substance": "CGACGTGCGCAATGTGCTG+CAGCACATAGTGCACGTCG ((((((((.(.((((((((+)))))))).).))))))))", "values": [{"measurement": "Tm", "value": 51.6, "unit": "°C"}]}, {"substance": "CGACGTGCGCAATGTGCTG+CAGCACATATGGCACGTCG ((((((((...((((((((+))))))))...))))))))", "values": [{"measurement": "Tm", "value": 50.7, "unit": "°C"}]}, {"substance": "CGACGTGCGCAATGTGCTG+CAGCACATATTGCACGTCG ((((((((...((((((((+))))))))...))))))))", "values": [{"measurement": "Tm", "value": 49.2, "unit": "°C"}]}, {"substance": "CGACGTGCGCAATGTGCTG+CAGCACATCAAGCACGTCG ((((((((...((((((((+))))))))...))))))))", "values": [{"measurement": "Tm", "value": 53.1, "unit": "°C"}]}, {"substance": "CGACGTGCGCAATGTGCTG+CAGCACATCCAGCACGTCG ((((((((...((((((((+))))))))...))))))))", "values": [{"measurement": "Tm", "value": 51.1, "unit": "°C"}]}, {"substance": "CGACGTGCGCAATGTGCTG+CAGCACATCCTGCACGTCG ((((((((...((((((((+))))))))...))))))))", "values": [{"measurement": "Tm", "value": 49.2, "unit": "°C"}]}, {"substance": "CGACGTGCGCAATGTGCTG+CAGCACATCGCGCACGTCG ((((((((((.((((((((+)))))))).))))))))))", "values": [{"measurement": "Tm", "value": 60.3, "unit": "°C"}]}, {"substance": "CGACGTGCGCAATGTGCTG+CAGCACATCTGGCACGTCG ((((((((...((((((((+))))))))...))))))))", "values": [{"measurement": "Tm", "value": 49.8, "unit": "°C"}]}, {"substance": "CGACGTGCGCAATGTGCTG+CAGCACATCTTGCACGTCG ((((((((...((((((((+))))))))...))))))))", "values": [{"measurement": "Tm", "value": 48.7, "unit": "°C"}]}, {"substance": "CGACGTGCGCAATGTGCTG+CAGCACATGACGCACGTCG (((((((((..((((((((+))))))))..)))))))))", "values": [{"measurement": "Tm", "value": 54.4, "unit": "°C"}]}, {"substance": "CGACGTGCGCAATGTGCTG+CAGCACATGAGGCACGTCG ((((((((...((((((((+))))))))...))))))))", "values": [{"measurement": "Tm", "value": 52.4, "unit": "°C"}]}, {"substance": "CGACGTGCGCAATGTGCTG+CAGCACATGCGGCACGTCG ((((((((...((((((((+))))))))...))))))))", "values": [{"measurement": "Tm", "value": 56.3, "unit": "°C"}]}, {"substance": "CGACGTGCGCAATGTGCTG+CAGCACATGGAGCACGTCG ((((((((.(.((((((((+)))))))).).))))))))", "values": [{"measurement": "Tm", "value": 60.2, "unit": "°C"}]}, {"substance": "CGACGTGCGCAATGTGCTG+CAGCACATGTAGCACGTCG ((((((((...((((((((+))))))))...))))))))", "values": [{"measurement": "Tm", "value": 57.5, "unit": "°C"}]}, {"substance": "CGACGTGCGCAATGTGCTG+CAGCACATGTCGCACGTCG (((((((((..((((((((+))))))))..)))))))))", "values": [{"measurement": "Tm", "value": 56.1, "unit": "°C"}]}, {"substance": "CGACGTGCGCAATGTGCTG+CAGCACATTAGGCACGTCG ((((((((..(((((((((+)))))))))..))))))))", "values": [{"measurement": "Tm", "value": 52.7, "unit": "°C"}]}, {"substance": "CGACGTGCGCAATGTGCTG+CAGCACATTGCGCACGTCG (((((((((((((((((((+)))))))))))))))))))", "values": [{"measurement": "Tm", "value": 67.1, "unit": "°C"}]}, {"substance": "CGACGTGCGCAATGTGCTG+CAGCACATTTCGCACGTCG (((((((((.(((((((((+))))))))).)))))))))", "values": [{"measurement": "Tm", "value": 57.5, "unit": "°C"}]}, {"substance": "CGACGTGCGCAATGTGCTG+CAGCACATTTGGCACGTCG ((((((((..(((((((((+)))))))))..))))))))", "values": [{"measurement": "Tm", "value": 52.5, "unit": "°C"}]}, {"substance": "CGACGTGCGCCATGTGCTG+CAGCACATAACGCACGTCG (((((((((..((((((((+))))))))..)))))))))", "values": [{"measurement": "Tm", "value": 52.4, "unit": "°C"}]}, {"substance": "CGACGTGCGCCATGTGCTG+CAGCACATAATGCACGTCG ((((((((...((((((((+))))))))...))))))))", "values": [{"measurement": "Tm", "value": 48.6, "unit": "°C"}]}, {"substance": "CGACGTGCGCCATGTGCTG+CAGCACATACAGCACGTCG ((((((((...((((((((+))))))))...))))))))", "values": [{"measurement": "Tm", "value": 51.3, "unit": "°C"}]}, {"substance": "CGACGTGCGCCATGTGCTG+CAGCACATACTGCACGTCG ((((((((...((((((((+))))))))...))))))))", "values": [{"measurement": "Tm", "value": 48.2, "unit": "°C"}]}, {"substance": "CGACGTGCGCCATGTGCTG+CAGCACATAGGGCACGTCG ((((((((.(.((((((((+)))))))).).))))))))", "values": [{"measurement": "Tm", "value": 52.8, "unit": "°C"}]}, {"substance": "CGACGTGCGCCATGTGCTG+CAGCACATAGTGCACGTCG ((((((((.(.((((((((+)))))))).).))))))))", "values": [{"measurement": "Tm", "value": 49, "unit": "°C"}]}, {"substance": "CGACGTGCGCCATGTGCTG+CAGCACATATAGCACGTCG ((((((((...((((((((+))))))))...))))))))", "values": [{"measurement": "Tm", "value": 52.4, "unit": "°C"}]}, {"substance": "CGACGTGCGCCATGTGCTG+CAGCACATCATGCACGTCG ((((((((...((((((((+))))))))...))))))))", "values": [{"measurement": "Tm", "value": 47.8, "unit": "°C"}]}, {"substance": "CGACGTGCGCCATGTGCTG+CAGCACATCCCGCACGTCG (((((((((..((((((((+))))))))..)))))))))", "values": [{"measurement": "Tm", "value": 50.6, "unit": "°C"}]}, {"substance": "CGACGTGCGCCATGTGCTG+CAGCACATCTGGCACGTCG ((((((((...((((((((+))))))))...))))))))", "values": [{"measurement": "Tm", "value": 47.4, "unit": "°C"}]}, {"substance": "CGACGTGCGCCATGTGCTG+CAGCACATGAAGCACGTCG ((((((((..(((((((((+)))))))))..))))))))", "values": [{"measurement": "Tm", "value": 57.1, "unit": "°C"}]}, {"substance": "CGACGTGCGCCATGTGCTG+CAGCACATGGCGCACGTCG (((((((((((((((((((+)))))))))))))))))))", "values": [{"measurement": "Tm", "value": 68.7, "unit": "°C"}]}, {"substance": "CGACGTGCGCCATGTGCTG+CAGCACATGGGGCACGTCG ((((((((.((((((((((+)))))))))).))))))))", "values": [{"measurement": "Tm", "value": 63.2, "unit": "°C"}]}, {"substance": "CGACGTGCGCCATGTGCTG+CAGCACATGTCGCACGTCG (((((((((.(((((((((+))))))))).)))))))))", "values": [{"measurement": "Tm", "value": 59.7, "unit": "°C"}]}, {"substance": "CGACGTGCGCCATGTGCTG+CAGCACATGTGGCACGTCG ((((((((..(((((((((+)))))))))..))))))))", "values": [{"measurement": "Tm", "value": 54.1, "unit": "°C"}]}, {"substance": "CGACGTGCGCCATGTGCTG+CAGCACATTAGGCACGTCG ((((((((...((((((((+))))))))...))))))))", "values": [{"measurement": "Tm", "value": 48.3, "unit": "°C"}]}, {"substance": "CGACGTGCGCCATGTGCTG+CAGCACATTATGCACGTCG ((((((((...((((((((+))))))))...))))))))", "values": [{"measurement": "Tm", "value": 47.6, "unit": "°C"}]}, {"substance": "CGACGTGCGCCATGTGCTG+CAGCACATTCGGCACGTCG ((((((((...((((((((+))))))))...))))))))", "values": [{"measurement": "Tm", "value": 47.5, "unit": "°C"}]}, {"substance": "CGACGTGCGCCATGTGCTG+CAGCACATTCTGCACGTCG ((((((((...((((((((+))))))))...))))))))", "values": [{"measurement": "Tm", "value": 47.8, "unit": "°C"}]}, {"substance": "CGACGTGCGCCATGTGCTG+CAGCACATTTAGCACGTCG ((((((((...((((((((+))))))))...))))))))", "values": [{"measurement": "Tm", "value": 50.1, "unit": "°C"}]}, {"substance": "CGACGTGCGCCATGTGCTG+CAGCACATTTCGCACGTCG (((((((((..((((((((+))))))))..)))))))))", "values": [{"measurement": "Tm", "value": 51.6, "unit": "°C"}]}, {"substance": "CGACGTGCGCGATGTGCTG+CAGCACATAATGCACGTCG ((((((((...((((((((+))))))))...))))))))", "values": [{"measurement": "Tm", "value": 50, "unit": "°C"}]}, {"substance": "CGACGTGCGCGATGTGCTG+CAGCACATACCGCACGTCG (((((((((..((((((((+))))))))..)))))))))", "values": [{"measurement": "Tm", "value": 53.8, "unit": "°C"}]}, {"substance": "CGACGTGCGCGATGTGCTG+CAGCACATAGAGCACGTCG ((((((((.(.((((((((+)))))))).).))))))))", "values": [{"measurement": "Tm", "value": 55.8, "unit": "°C"}]}, {"substance": "CGACGTGCGCGATGTGCTG+CAGCACATAGCGCACGTCG ((((((((((.((((((((+)))))))).))))))))))", "values": [{"measurement": "Tm", "value": 63, "unit": "°C"}]}, {"substance": "CGACGTGCGCGATGTGCTG+CAGCACATAGTGCACGTCG ((((((((.(.((((((((+)))))))).).))))))))", "values": [{"measurement": "Tm", "value": 53.7, "unit": "°C"}]}, {"substance": "CGACGTGCGCGATGTGCTG+CAGCACATATGGCACGTCG ((((((((...((((((((+))))))))...))))))))", "values": [{"measurement": "Tm", "value": 50.1, "unit": "°C"}]}, {"substance": "CGACGTGCGCGATGTGCTG+CAGCACATCAAGCACGTCG ((((((((..(((((((((+)))))))))..))))))))", "values": [{"measurement": "Tm", "value": 59, "unit": "°C"}]}, {"substance": "CGACGTGCGCGATGTGCTG+CAGCACATCCAGCACGTCG ((((((((..(((((((((+)))))))))..))))))))", "values": [{"measurement": "Tm", "value": 55.6, "unit": "°C"}]}]}
